# Assay results published in patent US20140017242A1, “ANTI-BRADYKININ B2 RECEPTOR (BKB2R) MONOCLONAL ANTIBODY” (Diamedica, Inc., priority 2010, published 2014).
# Values joined by “and” are separate entries in the source; they are usually repeats but may differ in a detail not shown here. Equal values may be shown once.
# Columns and labels:
# [1] = test system: influenza strain A/Brisbane/07 (H1N1); format: cell-based, influenza virus
# ZDF fa/fa rats [2] = assay: 21-day ZDF fa/fa study: glycated hemoglobin HbA1c; format: in vivo, rat; settings: day 21
# Procedure: Animals. Male ZDF fa/fa rats were obtained from CRL (Kingston, N.Y.). Upon arrival, rats were seven weeks of age. The rats were housed individually per cage in a room with a photo cycle of 12 hours of light and 12 hours of dark and an ambient temperature of 70-72° F. and fed on regular rodent diet and water ad libitum. At the age of eleven weeks, rats were divided into six groups (Table 5) of eight rats per group based on fasting blood glucose levels. A sub-group of four rats per group was maintained in parallel to the main groups and was dosed similarly for twenty-one days for a hyperinsulinemic-euglycemic clamp study. […]
# An oral glucose tolerance test (OGTT) was performed on Day 0, 7, 14 and 21 for each group of the study. Plasma samples were collected at each time point during OGTT to also measure insulin levels. Body weight, food and water intake were measured twice a week. Blood pressure and heart rates were monitored on Day 0, 7, 14 and 21 using a non-invasive tail cuff method (with five readings per rat taken and then averaged). Fasting serum samples were collected on Day 0, 7, 14 and 21 before OGTT for determination of triglyceride and total cholesterol level. Urine samples were collected on Day 7 and 14 for the determination of glycosuria. Glycated (Glycosylated) hemoglobin (HbA1c) was measured at the end of the study. Assay kits for these studies were as presented in Table 6, and were used according to the suppliers' instructions.
# The mean change in fasting blood glucose (mg/dL), serum cholesterol (mg/dL) and systolic blood pressure (mm Hg) from baseline ([…]) and negative control (MG2b-57, 0.2 mg/kg) groups using an analysis of covariance to adjust for baseline levels. […] A significance level of a=0.05 was used for all tests, and all analyses were conducted using SAS statistical software (vs. 9.2, Cary, N.C., U.S.A.).
# Hep G2 = assay: MTT Cell Proliferation Assay, Hep G2; format: cell-based, human; settings: 120 hours of exposure
# Text: This Example describes characterization of the cytotoxic activity of herein described anti-BKB2R monoclonal antibodies against a panel of cancer cell lines. BxPC-3 is a human adenocarcinoma cell line originally isolated from the pancreas (pancreatic cancer) (ATCC # CRL-1687; Tan et al., Cancer Invest. 4: 15-23, 1986. PubMed: 3754176). MV-4-11 is a human biphenotypic B myelomonocytic leukemia (mixed-lineage leukemia, MLL-AF4) cell line originally isolated from the peripheral blood (ATCC # CRL-959; Lange et al., Blood 70: 192-199, 1987. PubMed: 3496132). Hep G2 is a human hepatocellular carcinoma cell line isolated from the liver (liver cancer) (ATCC # HB-8065; Aden et al., Nature 282: 615-616, 1979. PubMed: 233137). RS4;11 is a human acute lymphoblastic leukemia (mixed-lineage leukemia, MLL-AF4) cell line isolated from the bone marrow (ATTC # CRL-1873) Stong et al., Blood 65: 21-31, 1985. PubMed: 3917311). HT-29 is a human colorectal adenocarcinoma (ATTC # HTB-38) cell line isolated from the colon (colon cancer). Fogh et al., J. Natl. Cancer Inst. 58: 209-214, 1977. PubMed: 833871). NUGC-4 is a human stomach carcinoma isolated from the stomach paragastiric lymph node (JCRB # JCRB0834; Akiyama et al., Jpn. J. Surg., 18: 438-446, 1988). […]
# The anti-proliferative activity of test compounds against the indicated cell lines was evaluated in vitro using the ATCC's MTT Cell Proliferation Assay (Catalog No. 30-1010K). After the 120 hour incubation with drug (e.g., anti-BKB2R mAb or cisplatin), cell proliferation was measured by addition of MTT reagent to each well and incubation for an additional 4 hrs. […] Optical absorbance (570 nm) of the test wells was measured and then quantitated relative to control wells that received no drug. Results were expressed as percent inhibition versus compound concentration and graphed, as shown in FIGS. 19-25, for cell lines BxPC-3, MV-4;11, HepG2, RS-4;11, HT-29, NUGC-4, and PC-3, respectively.
# ZDF fa/fa rats [3] = assay: Oral glucose tolerance test in ZDF fa/fa rats, single dose of 5F12G1; format: in vivo, rat; settings: single s.c. administration 1.0, 0.2 and 0.04 mg/kg
# Procedure: This Example describes evaluation of oral glucose tolerance in Zucker Diabetic fatty (ZDF fa/fa) rats treated with 5F12G1 monoclonal antibody. Male ZDF fa/fa rats (Charles River) were maintained on a Harlan Tekled diet with Arrowhead drinking water ad libitum and allowed to acclimatize for one week. Six animals per group were treated according to the following treatment groups: 1, sterile PBS (vehicle control); 2, 1.0 mg/kg murine monoclonal antibody (mAb) 5F12G1 (VH comprising SEQ ID NO:1, VL comprising SEQ ID NO:2); 3, 0.2 mg/kg mAb 5F12G1; 4, 0.04 mg/kg mAb 5F12G1.
# Oral Glucose Tolerance Test. The Oral Glucose Tolerance Test (OGTT) was performed on overnight fasted (16 hours) rats. Vehicle control (PBS) or 5F12G1 monoclonal antibody was administered subcutaneously thirty minutes prior to glucose loading. D-glucose was prepared in distilled water and administered orally at 2 g/kg body weight.
# At multiple time points (0, 15, 30, 60, 90 and 120 minutes) blood samples of approximately 50 μl each were collected and processed to isolate the plasma. The plasma samples were analyzed for insulin by an ELISA method using an ultra sensitive mouse insulin ELISA kit (Crystal Chem, Inc., Downers Grove, Ill.). ELISA data were compiled and used to calculate the mean±standard error (SEM) with Microsoft Excel or GraphPad Prism version 5.00 for Windows (GraphPad Software, San Diego Calif. USA).
molecule,measurement,setting,value
"5F12G1: murine monoclonal anti-BKB2R antibody (IgG2b,κ), VH comprising SEQ ID NO:1, VL comprising SEQ ID NO:2 (antibody, listed as Mus musculus, V domains shown) VH: EVKLEESGGGLVQPGGSMKLSCVVSGFTFSDYWMSWVRHSPEMGLEWVAEIRLKSDNYATHYAESVKGRFTISRDDSKSRLYLQINSLRGEDTGIYYCTRDYYAMEYWGQGTSVTVSS VL: DVVMTQTPLSLPVSLGDQASISCRSSQTIVHSNGKTYLEWYLQKPGQSPKLLIYKVSNRFSGVPDRFSGSGSGTEFTLKISRVETEDLGVYYCFQASHVPYTFGGGTKLEIK",+/− Result FAM,[1],Positive
same,dose dependence of the reduction of viral titer / viral genomic copies,"[1]; A549 cells, qRT-PCR, FIGS. 5 to 8",decreased viral titer in a dose-dependent manner
same,reduction in viral titer,[1]; highest tested concentration of 100 μg/ml,100 fold
same,Ct FAM,[1]; listed as G1,36.21 and 30.38 and 35.93 and 30.08 and 37.95 and 32.97 and 34.96 and 34.02
same,percent glycosylated hemoglobin A1c (HbA1c),ZDF fa/fa rats [2]; 0.2 mg/kg s.c. every 3 days (high dose),6.3+/−0.5%
same,difference in percent HbA1c between the high dose and negative control animals,ZDF fa/fa rats [2]; 0.2 mg/kg s.c. every 3 days vs MG2b-57 0.2 mg/kg,−2.58+/−0.85%
same,EC 50 Values (ng/ml) Hep G2,Hep G2,21000 ng/mL
same,insulin activity in OGTT,ZDF fa/fa rats [3],dose dependently increased insulin activity
same,"area under curve (AUC) of blood glucose concentration after oral loading of glucose, compared to vehicle control",ZDF fa/fa rats [3]; 30 min before glucose 2 g/kg,decreased
